Measured values reported in patent US20240101668A1 (WUGEN, published 2024).

T1: huCLL1-K244-Avi-Tev-His (human, UniProt Q5QGZ9 65-265)
T1 construct: extracellular domain
T1 sequence (looked up): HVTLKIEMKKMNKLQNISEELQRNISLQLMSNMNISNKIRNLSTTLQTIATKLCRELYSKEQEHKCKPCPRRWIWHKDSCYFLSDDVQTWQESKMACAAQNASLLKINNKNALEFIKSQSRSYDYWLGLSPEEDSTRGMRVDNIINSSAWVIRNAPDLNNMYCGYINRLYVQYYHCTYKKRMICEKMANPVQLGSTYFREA

T2: huCLL1-Q244-Avi-Tev-His (human, UniProt Q5QGZ9 65-265)
T2 construct: extracellular domain; also called CLL-1 K244Q
T2 sequence (looked up): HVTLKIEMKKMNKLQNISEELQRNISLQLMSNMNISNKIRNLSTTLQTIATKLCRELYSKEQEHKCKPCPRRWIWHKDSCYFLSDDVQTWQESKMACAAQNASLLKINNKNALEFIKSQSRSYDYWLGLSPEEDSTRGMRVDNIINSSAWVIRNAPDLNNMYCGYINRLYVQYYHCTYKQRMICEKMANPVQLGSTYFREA


Key:
huCLL1-K244-Avi-Tev-His = molecular target: T1, huCLL1-K244-Avi-Tev-His; experiment: BLI
Protocol: (§1) Discovered scFvs were analyzed for binding to huCD33-R69-His or huCD33-G69-Fc recombinant proteins (for anti-CD33 scFvs; for CLL-1 scFvs, huCLL1-K244-Avi-Tev-His or huCLL1-Q244-Avi-Tev-His were used; for FLT3, huFLT3-T227-His or huFLT3-M227-Fc were used) using BLI on a ForteBio Octet HTX instrument. Streptavidin-coated biosensors were loaded with biotinylated anti-V5 tag monoclonal antibody for 5 min and were then quenched and blocked with 20 μM amine-PEG2-Biotin for 5 min. scFvs were captured on biosensors from scFv clone periplasmic extracts. huCD33 (or huCLL-1, or huFLT3) proteins were then associated with the captured scFvs for 2 minutes, followed by dissociation with buffer (1×HBST [10 mM HEPES pH 7.4, 150 mM NaCl, 0.05% Tween-20], 1 g/L BSA) for 5 minutes. […] Data was fitted with 1:1 Langmuir equation and off-rate values were reported.
(§2) Analogous methods were used to assess selectivity of binding of polypeptides to CLL-1 K244 or CLL-1 Q244.

huCLL1-Q244-Avi-Tev-His = molecular target: T2, huCLL1-Q244-Avi-Tev-His; experiment: BLI
Protocol: as §1, §2

[1] = molecular target: T3, huFLT3-M227 stably expressed on Ramos cells (human, UniProt P36888 27-993); experiment: FACS on cells
T3 construct: whole, on cells; also called FLT3 Mutant

[2] = molecular target: T4, huFLT3-T227 stably expressed on Ramos cells (human, UniProt P36888 27-993); experiment: FACS on cells
T4 construct: whole, on cells; also called FLT3 WT
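Throughout, for result: Bio-layer interferometry with scFvs captured on biosensors via anti-V5 antibody, exposed 2 min to CLL-1 K244 or Q244 protein, 5 min dissociation, scored as binding, no binding or ambiguous.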

Binder	binding result (huCLL1-K244-Avi-Tev-His)	binding result (huCLL1-Q244-Avi-Tev-His)	FACS geometric mean fold change over Jurkat parental [1] [fold]	FACS geometric mean fold change over Jurkat parental [2] [fold]
Polypeptide No. 58 (scFv, V domains shown, scFv) VH: QVQLVQSGAEVKKPGASVKVSCKASGYTFTDYYLHWVRQAPGQGLEWMGWMNPNSGNTGYAQKFQGRVTMTRDTSTSTVYMELSSLRSEDTAVYYCAADVITAYGMDVWGQGTMVTVSS VL: DIQMTQSPSSLSASVGDRVTITCRASQGISNYLAWYQQKPGKAPKLLIYDASNLETGVPSRFSGSGSGTDFTLTISSLQPEDFATYYCQQSYNVPPTFGQGTKVEIKR	binds	no binding	–	–
Polypeptide No. 52 (scFv, V domains shown, scFv) VH: QVQLVQSGAEVKKPGASVKVSCKASGDTFTRHYVHWVRQAPGQGLEWMGIINPRGGTHYAQKFQGRVTMTRDTSTSTVYMELSSLRSEDTAVYYCARRDCSGGSCYSDLDYWGQGTLVTVSS VL: DIQMTQSPSSLSASVGDRVTITCQASQDIHNYLNWYQQKPGKAPKLLIYQASSLESGVPSRFSGSGSGTDFTLTISSLQPEDFATYYCQQANSFPLTFGGGTKLEIKR	binds	no binding	–	–
Polypeptide No. 87 (scFv, V domains shown, scFv) VH: QVQLVQSGAEVKKPGASVKVSCKASGYSFTNYYIHWVRQAPGQGLEWMGWMNPYTGQTGYAQKFQGRVTMTRDTSTSTVYMELSSLRSEDTAVYYCTTDEETMDFHLWGRGTLVTVSS VL: DIQMTQSPSSLSASVGDRVTITCZASQSISSYLNWYQQKPGKAPKLLIYDASNLETGVPSRFSGSGSGTDFTLTISSLQPEDFATYYCQQANTFPITFGQGTRLEIKR	no binding	–	–	–
Polypeptide No. 55 (scFv, V domains shown, scFv) VH: QVQLVQSGAEVKKPGASVKVSCKASGYTFTGYHMHWVRQAPGQGLEWMGWINPNTGGTNYAQKFQGRVTMTRDTSTSTVYMELSSLRSEDTAVYYCARPNTAMVPPYYYYYGMDVWGQGTLVTVSS VL: DIQMTQSPSSLSASVGDRVTITCQASQDISNYLNWYQQKPGKAPKLLIYAASSLQSGVPSRFSGSGSGTDFTLTISSLQPEDFATYYCQQYNSYPLTFGQGTKLEIKR	binds	no binding	–	–
Polypeptide No. 54 (scFv, V domains shown, scFv) VH: QVQLVQSGAEVKKPGASVKVSCKASGGTFSSYAISWVRQAPGQGLEWMGWIDPKNGDTNYAQKFQGRVTMTRDTSTSTVYMELSSLRSEDTAVYYCATEGSHHPYYYYGMDVWGQGTTVTVSS VL: DIQMTQSPSSLSASVGDRVTITCRASQGIGNWLAWYQQKPGKAPKLLIYEASTLQSGVPSRFSGSGSGTDFTLTISSLQPEDFATYYCHQYNAYPWTFGQGTKVEIKR	binds	no binding	–	–
Polypeptide No. 56 (scFv, V domains shown, scFv) VH: QVQLVQSGAEVKKPGASVKVSCKASGYTFTSYDINWVRQAPGQGLEWMGWMNPNSGNTGYAQKFQGRVTMTRDTSTSTVYMELSSLRSEDTAVYYCARVSATGTYGLDYWGQGTLVTVSS VL: DIQMTQSPSSLSASVGDRVTITCRASHSISSWLAWYQQKPGKAPKLLIYDASNLETGVPSRFSGSGSGTDFTLTISSLQPEDFATYYCQQADSFPLTFGGGTKVEIKR	binds	no binding	–	–

Further lines, results first:

binding result (huCLL1-K244-Avi-Tev-His)	binding result (huCLL1-Q244-Avi-Tev-His)	FACS geometric mean fold change over Jurkat parental [1] [fold]	FACS geometric mean fold change over Jurkat parental [2] [fold]	Binder
binds	no binding	–	–	Polypeptide No. 57 (scFv, V domains shown, scFv) VH: QVQLVQSGAEVKKPGASVKVSCKASGYTFNNYGITWVRQAPGQGLEWMGIINPITGVTTYAQNFQGRVTMTRDTSTSTVYMELSSLRSEDTAVYYCASGEQQLVLFDYWGQGTLVTVSS VL: DIQMTQSPSSLSASVGDRVTITCQASQDINDYLNWYQQKPGKAPKLLIYGASNLQSGVPSRFSGSGSGTDFTLTISSLQPEDFATYYCLQHNSYPLTFGQGTKLEIKR
binds	no binding	–	–	Polypeptide No. 59 (scFv, V domains shown, scFv) VH: EVQLLESGGGLVQPGGSLRLSCAASGFTFSNAWMSWVRQAPGKGLEWVADISYDGTNDYYADSVKGRFTISRDNSKNTLYLQMNSLRAEDTAVYYCTTEELRFGGFDYWGQGTLVTVSS VL: DIQMTQSPSSLSASVGDRVTITCRASQSISSYLNWYQQKPGKAPKLLIYDASNLETGVPSRFSGSGSGTDFTLTISSLQPEDFATYYCQQANSFPLTFGQGTKVEIKR
–	–	10 to 30	10 to 30	Polypeptide No. 294 (scFv, V domains shown, scFv) VH: QVQLVQSGAEVKKPGASVKVSCKASGYTFTSNNMHWVRQAPGQGLEWMGWINLNSGGTNYAQKFQGRVTMTRDTSTSTVYMELSSLRSEDTAVYYCAKAIDYYYMDVWGKGTTVTVSS VL: DIQMTQSPSSLSASVGDRVTITCRASQGIRNDLGWYQQKPGKAPKLLIYQASSLENGVPSRFSGSGSGTDFTLTISSLQPEDFATYYCQQAYSLPWTFGQGTKLEIKR
binds	no binding	–	–	Polypeptide No. 60 (scFv, V domains shown, scFv) VH: QVQLVQSGAEVKKPGSSVKVSCKASGGTFSSYAISWVRQAPGQGLEWMGGIIPMFGTANYAQKFQGRVTITADESTSTAYMELSSLRSEDTAVYYCARDLGYSNAGGTLHYWGQGTLVTVSS VL: EIVMTQSPATLSVSPGERATLSCRASQSIGTYLAWYQQKPGQAPRLLIYDASSRATGIPARFSGSGSGTEFTLTISSLQSEDFAVYYCQQYKSYPLTFGGGTKVEIKR
binds	no binding	–	–	Polypeptide No. 51 (scFv, V domains shown, scFv) VH: QVQLVQSGAEVKKPGSSVKVSCKASGGTFSSYAISWVRQAPGQGLEWMGEIIPFFGTANYAQKFQGRVTITADESTSTAYMELSSLRSEDTAVYYCARAEYGGDLDYWGQGTLVTVSS VL: DIQMTQSPSSLSASVGDRVTITCQASQDISNLLNWYQQKPGKAPKLLIYAASTLQSGVPSRFSGSGSGTDFTLTISSLQPEDFATYYCQQSYNTPWTFGPGTKVDIKR
binds	–	–	–	Polypeptide No. 61 (scFv, V domains shown, scFv) VH: QVQLVQSGAEVKKPGASVKVSCKASGYTFTNYYMHWVRQAPGQGLEWMGIINPSGGSTSYAQKFQGRVTMTRDTSTSTVYMELSSLRSEDTAVYYCARAEWDILTGYYIDYWGQGTLVTVSS VL: DIQMTQSPSSLSASVGDRVTITCQASQDISNYLNWYQQKPGKAPKLLIYGASSLQSGVPSRFSGSGSGTDFTLTISSLQPEDFATYYCQQHNSYPWTFGQGTKVEIKR
binds	no binding	–	–	Polypeptide No. 50 (scFv, V domains shown, scFv) VH: QVQLVQSGAEVKKPGASVKVSCKASGYTFTDYYMHWVRQAPGQGLEWMGIINPSDGSTTYAQSFQGRVTMTRDTSTSTVYMELSSLRSEDTAVYYCARDELPDSSGWYGYFQHWGQGTLVTVSS VL: DIQMTQSPSSLSASVGDRVTITCRASQSISSWLAWYQQKPGKAPKLLIYAASSLQSGVPSRFSGSGSGTDFTLTISSLQPEDFATYYCQQSYDIPLTFGGGTKVEIKR
binds	no binding	–	–	Polypeptide No. 53 (scFv, V domains shown, scFv) VH: QVQLVQSGAEVKKPGASVKVSCKASGGTFSSYAISWVRQAPGQGLEWMGWINPDSGDASYARKFQGRVTMTRDTSTSTVYMELSSLRSEDTAVYYCATFGEEAFDIWGQGTMVTVSS VL: DIQMTQSPSSLSASVGDRVTITCRASQNIGSWLAWYQQKPGKAPKLLIYGASILQSGVPSRFSGSGSGTDFTLTISSLQPEDFATYYCQQANSFPLTFGGGTKLEIKR
